In US10835594B2, “Type III secretion injectisome proteins for treatment and prevention of chlamydial infections” (priority 2014, dated 2020):

System: murine C. trachomatis (Cmu)
Assay: Immunization of mice and live intravaginal challenge with Cmu
Set-up: species or system BALB/c mice
Conditions: mouse, in vivo

B1: Cpn0803 protein: Chlamydia pneumoniae type III secretion-associated protein, SEQ ID NO: 1 (protein, listed as Chlamydia pneumoniae)
chain: MAAKTKTLELEDNVFLLLEGNLKRIFATPIGYTTFREFQNVVFNCANGQQEIANFFFEMLINGKLTQELAPQQKQAAHSLIAEFMMPIRVAKDIHERGEFINFITSDMLTQQERCIFLNRLARVDGQEFLLMTDVQNTCHLIRHLLARLLEAQKNPVGEKNLQEIQEEITSLKNHFDELTKALQ
immune response protective against live challenge: protective against a live challenge with Chlamydia
immune response protective against live challenge (listed as Cpn0803): Protective Against a Live Challenge with Chlamydia
